These results are taken from patent US20260158160A1 (MACFARLANE BURNET INSTITUTE FOR MEDICAL RESEARCH AND PUBLIC …, published 2026).

The assay has as its target T1, SARS-CoV-2 spike protein expressed on Ramos-S cells (SARS-CoV-2, UniProt P0DTC2 14-1273).
T1 construct: whole, on cells; also called S protein; Ramos cells expressing transfected spike protein
The assay can be described thus: flow cytometry on Ramos-S cells.

B1: CC40.8-H429F (antibody)
heavy: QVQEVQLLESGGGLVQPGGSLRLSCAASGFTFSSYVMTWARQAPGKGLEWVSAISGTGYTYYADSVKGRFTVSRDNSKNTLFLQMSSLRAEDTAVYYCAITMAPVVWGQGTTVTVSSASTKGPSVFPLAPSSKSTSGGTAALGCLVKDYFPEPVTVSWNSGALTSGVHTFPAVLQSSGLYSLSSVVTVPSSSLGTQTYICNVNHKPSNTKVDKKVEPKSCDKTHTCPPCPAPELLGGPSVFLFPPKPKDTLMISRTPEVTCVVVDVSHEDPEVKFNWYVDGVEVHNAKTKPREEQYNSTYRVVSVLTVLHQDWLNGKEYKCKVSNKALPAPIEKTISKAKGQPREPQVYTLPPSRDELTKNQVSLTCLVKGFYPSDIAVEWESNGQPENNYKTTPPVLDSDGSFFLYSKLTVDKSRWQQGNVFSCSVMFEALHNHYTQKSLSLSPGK
light: SYELTQPPSVSVSPGQTARITCSGDALPKRYAYWYQQKSGQAPILVIYEDKKRPSGIPERLSGSKSGTVATLTISGAQVEDEADYYCYSTDSSGNHAVFGGGTQLTVLGQPKAAPSVFIFPPSDEQLKSGTASVVCLLNNFYPREAKVQWKVDNALQSGNSQESVTEQDSKDSTYSLSSTLTLSKADYEKHKVYACEVTHQGLSSPVTKSFNRGEC
notes: also called CC40.8-HF
As to B1, the binding result is on record as “binds”.
